From PMC2776655 (Circulation research, 2009) come the findings set out here.

Numbering of substitutions follows the chain as printed. Numbers in names are those of the source.

Data set [1] concerns the molecule itself. Briefly: SDS-PAGE in non-reducing conditions.
A further data set addresses T1, VEGFR-3-Ig (UniProt P35916 25-775).
T1 sequence (looked up): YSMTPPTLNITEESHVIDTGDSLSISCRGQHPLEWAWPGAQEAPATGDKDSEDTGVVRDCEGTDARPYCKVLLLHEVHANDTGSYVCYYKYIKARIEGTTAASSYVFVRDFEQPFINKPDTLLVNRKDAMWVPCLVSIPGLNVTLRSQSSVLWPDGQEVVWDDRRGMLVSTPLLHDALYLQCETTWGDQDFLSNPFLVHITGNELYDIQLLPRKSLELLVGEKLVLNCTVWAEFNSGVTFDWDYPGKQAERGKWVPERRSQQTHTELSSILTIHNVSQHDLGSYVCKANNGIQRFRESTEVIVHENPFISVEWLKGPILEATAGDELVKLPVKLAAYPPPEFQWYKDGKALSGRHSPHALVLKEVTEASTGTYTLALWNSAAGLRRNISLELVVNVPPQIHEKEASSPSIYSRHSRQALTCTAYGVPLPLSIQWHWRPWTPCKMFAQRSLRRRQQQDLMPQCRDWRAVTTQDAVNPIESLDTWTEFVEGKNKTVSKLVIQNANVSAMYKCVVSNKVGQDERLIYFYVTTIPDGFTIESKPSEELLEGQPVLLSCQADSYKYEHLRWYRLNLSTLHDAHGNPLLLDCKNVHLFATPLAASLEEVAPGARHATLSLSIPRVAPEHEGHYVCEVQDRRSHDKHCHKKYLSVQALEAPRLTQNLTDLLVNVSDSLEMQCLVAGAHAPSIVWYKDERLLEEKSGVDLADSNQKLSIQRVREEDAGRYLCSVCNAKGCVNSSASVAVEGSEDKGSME
As to the kind of experiment: ELISA.

The target of the next data set is VEGFR-2-Ig (UniProt P35968 20-764). Briefly: ELISA. In general terms: An ELISA detects its analyte on a solid surface through an enzyme-linked reagent.
Sequence of VEGFR-2-Ig (P35968 20-764): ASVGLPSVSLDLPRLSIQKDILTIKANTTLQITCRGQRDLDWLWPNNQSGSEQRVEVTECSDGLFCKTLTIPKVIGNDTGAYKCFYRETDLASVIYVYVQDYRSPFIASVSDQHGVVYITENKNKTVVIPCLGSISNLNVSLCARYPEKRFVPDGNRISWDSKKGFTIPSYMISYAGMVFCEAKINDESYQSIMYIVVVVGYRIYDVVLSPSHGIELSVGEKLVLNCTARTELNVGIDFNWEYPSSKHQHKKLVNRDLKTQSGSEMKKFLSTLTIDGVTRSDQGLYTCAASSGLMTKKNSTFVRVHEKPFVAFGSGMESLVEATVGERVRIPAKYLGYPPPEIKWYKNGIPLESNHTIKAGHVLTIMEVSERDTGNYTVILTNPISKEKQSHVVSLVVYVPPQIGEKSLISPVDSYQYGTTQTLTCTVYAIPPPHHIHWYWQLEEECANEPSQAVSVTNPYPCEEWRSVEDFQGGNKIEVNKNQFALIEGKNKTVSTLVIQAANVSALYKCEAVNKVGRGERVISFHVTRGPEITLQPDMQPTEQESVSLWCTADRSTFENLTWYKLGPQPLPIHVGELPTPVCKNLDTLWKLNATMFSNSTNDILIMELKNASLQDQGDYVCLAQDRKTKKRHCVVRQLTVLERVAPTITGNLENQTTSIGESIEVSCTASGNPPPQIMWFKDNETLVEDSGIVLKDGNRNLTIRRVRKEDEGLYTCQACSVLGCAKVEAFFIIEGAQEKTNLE
Data set [2] deals with the molecule itself. Briefly: SDS-PAGE after treatment with DTT.
The target in data set [3] is T2, VEGFR-3 (protein used in isothermal titration calorimetry) (UniProt P35916 25-775).
T2 sequence (looked up): T1 sequence (looked up)
As to the kind of experiment: ITC.

B1: hVEGF-Csf C137A, from transfected 293T cell medium (ligand, human, UniProt P49767 112-227, looked up)
chain: AHYNTEILKSIDNEWRKTQCMPREVAIDVGKEFGVATNTFFKPPCVSVYRCGGCCNSEGLQCMNTSTSYLSKTLFEITVPLSQGPKPVTISFANHTSCRCMSKLDVYRQVHSIIRR
With B1, the “stoichiometry N” value in data set [1] was found to be 2.

B2: purified hVEGF-Csf C137A (ligand, human, UniProt P49767 112-227, looked up)
chain: B1 chain
With B2, the EC50 amounted to 1.3 ± 0.3 nM with VEGFR-3-Ig and 2.7 ± 0.6 nM with VEGFR-2-Ig. In addition, the “stoichiometry N” value in data set [2] turned out to be 2. In data set [3], this molecule had a Kd of 280 ± 30 nM.

B3: purified human VEGF-Csf (ligand, UniProt P49767 112-227, looked up)
chain: B1 chain with A26C
In the case of B3, the figures for the EC50 with VEGFR-3-Ig and with VEGFR-2-Ig were 2.2 ± 0.6 nM and 2.6 ± 0.3 nM, respectively. The Kd in data set [3] is 310 ± 50 nM.

Usually stoichiometry N stands for the number of molecules, sites or subunits per partner or assembly. In general, EC50 refers to the concentration at which the effect is half-maximal. Low values mean an effect from little substance, high ones a need for much substance. By Kd is commonly meant the free concentration of one partner at which half of the binding sites on the other are occupied at equilibrium, for simple one-to-one binding. Low readings indicate a tighter complex, high ones a looser complex.
